Assay results taken from the DeepSol protein solubility set.

Assay: soluble on expression in E. coli; label from the status in PepcDB or PDB records

Question: For “MNREFVEAMQHLALERGVSVEEILKAFKRALRKAYIKRQKGYKKEEIDQGKGPEVDVYIDPNSGRIEMVKVRRVVEKVEDPDKEIALAEALQYDPEVQVGDEMEFPINPEELSRMAIQDLRQILTQRLKESERNRIYNEYKDKEGQVLTGVVTRVDNRGNVFVELGRGEAYLPRSEQIPTEKYHPGQRIKVYLKKVDKSAKGPSLLVSRAHEKLLEHLLKQEVPEIAEGIVEIKAIAREPGRRSKVAVTSHNPNVDPIGACIGHKGQRIQAVSAELGREKVDIILWSKDPKEFIRNALSPAQVGSIELDPEAKKARVKVTKDQHSLAIGTGGQNVRLASKLTGYDIHFEEAEISDLDEALRRAAEEEAEARERKAREEFEKLFRDLG”, which “soluble on expression in E. coli” value is on record?
Answer: soluble

Question: With “MKTFNAGRNADTEDELWVVEHPPVFTQGLAGKPEHLLIRDDIPVVQIDRGGQITYHGPGQLVVYTMIDFKRRKTSVRNIVSALENSIIATLAEYGIEAAADPKRPGVYVGERKIASLGLRIKNGSVYHGLALNVNMDLSPFTHINPCGYAGMEMTQIADFVQPCPTPDEVAAKLTAHLETQFTPKADNNE” as the sequence, how does the “soluble on expression in E. coli” value read?
Answer: not soluble

Question: For “MAGFFNKLTGFFTISRQHNPPFEAASKSRRMGGFDPAKKHINKAIEECGDTIVARSRWLYDNESLYGSATEEWVSAAVSDGIKPYPRIEGFQEEKKKLLDLWWQWVDEADYDEDANFYGLQATIAREVFLTGECFVRLHYVDLYGRSGVPFQLQIYPTEMLDLTYNGPAETEGNYIRMGIEFNASGKRVAYHFWEHHPYDDCPANRAFKSQDRIRVPAEMVLHIKERRIAGQLRGSPKITRSMTKIFQLESYDDAELDRKRTAALFAVFITGKESHDAALEENREQTRLPKKPEEAADVDKIYPGSVNMVDGEKQITFSTPVEVGGSYEAFQFRNILKICSALNMPYAVVTGDVTRGNFSNVRTSIIQFRRHVKQWREHIIAFQFNRIVWERFVEMAVLSGRVHLPGWEENPLPWLQCESFAPPLEMIDPNKDISAEKEEIRAGLKTRRMALAERGFDIDSIHAELEEEHTDARARGLSFDTDMAASSGDNQIIDTTDSDPSETYESNQGSEAHKNGE”, which “soluble on expression in E. coli” value is on record?
Answer: not soluble

Question: For “MGSDKIHHHHHHMFSYEKVQTLNQLELFVYKYVTSHLEECKTMTIRDLSTQSHVSSTTILRFLKKMGFEGFSDFKYVLRHRNDRTPASELSQDLGPIGQFLKQTATTEYTEKMEEVARVVAQSNTRLFFGMGSSGSMAQYGARILSNYGMLTLAITDPFQPQPISERDYSKTLIILLSVSGETEGVLTQANYYRQNGAKIVAITANSTSTLAQIADYSLTYDIPENKVGSLNFTSQIPVVYLLEQLGEKTSKLVYHPEISHEI”, which “soluble on expression in E. coli” value is on record?
Answer: not soluble

Question: With “MRKIGIIGGTFDPPHYGHLLIANEVYHALNLEEVWFLPNQIPPHKQGRNITSVESRLQMLELATEAEEHFSICLEELSRKGPSYTYDTMLQLTKKYPDVQFHFIIGGDMVEYLPKWYNIEALLDLVTFVGVARPGYKLRTPYPITTVEIPEFAVSSSLLRERYKEKKTCKYLLPEKVQVYIERNGLYESLAAALEHHHHHH” as the sequence, how does the “soluble on expression in E. coli” value read?
Answer: soluble

Question: For “MSVAGLKKQFHKASQLFSEKISGAEGTKLDEEFLNMEKKIDITSKAVAEILSKATEYLQPNPAYRAKLGMLNTVSKLRGQVKATGYPQTEGLLGDCMLKYGKELGEDSAFGNSLVDVGEALKLMAEVKDSLDINVKQTFIDPLQLLQDKDLKEIGHHLRKLEGRRLDYDYKKRRVGKIPEEEIRQAVEKFEESKELAERSMFNFLENDVEQVSQLAVFVEAALDYHRQSTEILQELQSKLELRISLASKVPKREFMPKPVNMSSTDANGVGPSSSSKTPGTDTPSDQPCCRGLYDFEPENEGELGFKEGDIITLTNQIDENWYEGMLRGESGFFPINYVEVIVPLPP”, which “soluble on expression in E. coli” value is on record?
Answer: soluble

Question: For “GPGSMGSGCSTESSTDVRCSFVGLMDEKKESWRGRLLGDIGKDPTGVTRDFPRTQVYVAAPNRNNYYREKQDHVSVLVLKDKEDESKYFSDRNERVRESLELLVELCGEDSSVIKSEWEKQQKDIPDSSSLLMTVLLESGMMRATEANTENGGAGGETDAVTNIQNGGGGYAPKYTVHSKALRLMQYMVQSVAFFSTQHVTDALRFSWCKHMQDVSWAVYVYTEGGACGKERNSSDEILVLRHMHTLRHYVGQSERSTHPRFEVDWACTFHIDLKRLLDANNTAAKEATFAPEGEVQRIDGELLAARIESPNRKLCRITSTWKKRRSELEGRLMECFGVELTKVDVLDENGPLSALNSGG”, which “soluble on expression in E. coli” value is on record?
Answer: not soluble

Question: With “GPRRTRTTFTSSQIAELEQHFLQGRYLTAPRLADLSAKLALGTAQVKIWFKNRRRRHKIQSDQHKDQS” as the sequence, how does the “soluble on expression in E. coli” value read?
Answer: soluble

Question: With “MNGRRWMVLAAVVGVSTLSACASQGHDSDETLPTYTPPAWMAEVRAQNEEYANAGVACLAAHGVEGTADNGTFGISYGPQSQGALTHMTDEEADALLTECSESLSLPDYVNNSADEEYDRVLDLRECVIAQGYDMPDAPSREVWTEQWERTRDAWVPYYHEMTLDPDGLERHKVTVEEMNRLQSICVPSTVGATTVSR” as the sequence, how does the “soluble on expression in E. coli” value read?
Answer: not soluble

Question: Which “soluble on expression in E. coli” value does the source give for “MPGWRSICAVMGLTFTGCVFIQGSARAQDGNKATAVLELYTSQGCKSCPPADKNFAKYADDPNVLALSFHVNYWDYMGWRDTLATQDNTDRQNSYRNAFHAKMIYTPQAIINGAVEANGRNGAAINAKIAANKLDVPVSIQQLNDGRLSIDIGAGKKPRDPVHVVLFYFRDSATIPITEGENAGKAITYRNTVSDIDTIGMWDGKPLKIELPASELKRKDVTGCAVVLQETRSDNSLGPMHGAAMFKQKRPVSFLEHHHHHH” here?
Answer: not soluble

Question: For “MSLRKTQTYKSLPYNPALRDRAKALRKAGILHEALLWFELKSNKLNGLDFDRQKIIGNYIVDFYCAERSVVIEVDGSSHDSKQIEDRERDAYLNGLGLTVIRVLAKDVLRNLEGVVEFLKDHPALTGTPPEEGNKTALTGTPPEEGNKTALTGTPPEEGNKTALTGTPPEEGNKTALTGTPPEEGNKTTLTEAREEGHHHHHH”, which “soluble on expression in E. coli” value is on record?
Answer: soluble

Question: With “MLTQEHINIIKSTIPLLESAGPALTQHFYQRMFSHNPELKHIFNMTHQKTGRQSVALFEAIAAYAKHIDNLAALTSAVERIAHKHTSFNIQPEHYQIVGHHLLETLRELAPDAFTQPVEEAWTAAYFFLAQVFIDREGALYLERKQALGGWRDGRTFVVREKQVESAYVTSFVLVPADGGAVLDYQPGQYIGIEVTPEGSDYREIRQYSLSHASNGREYRISVKREGVGSDNPGLVSHYLHNNVKVGDSVKLYAPAGDFFYVERERPVVLISAGVGATPMQAILHTLAKQNKSGVTYLYACNSAKEHTFAQETAQLIAQQGWMQQVWYRDESADDVLQGEMQLAELILPIEDGDFYLCGPIGFMQYVVKQLLALGVDKARIHYEVFGPHAQLAA” as the sequence, how does the “soluble on expression in E. coli” value read?
Answer: not soluble

Question: With “MHTNERKTVVYEYQNEQEVVMKVKELELQGVRHDDIYVLAHEKHITKRIADDTNTNTIGVKEQGLGTSIINFFSKKGDELRNQMEEMGLSKEEANLYEEKLDQGKILLLVTAEVPMANDRQPQNYHSL” as the sequence, how does the “soluble on expression in E. coli” value read?
Answer: not soluble

Question: Which “soluble on expression in E. coli” value does the source give for “MSLEEQLAQNDQPSEKLVRLYGAWAEGGAGVLVTGNVMVAESGKGSINDVLISDDRALEMLKKWAKARTQNDTLLIMQINHAGKQSPAVVNKTPLAPSAVPLVGMNGFINPPRELSADEINGLIQQFVQTAKIAEQAGFSGVQIYAVHGYLISQFLSPHHNRRQDQWGGSLENRMRFLLETYTAIRAAAGKDFLVGVKLNSADFQKGGFDESESVQVVQKLSEMGIDFIEVSGGNYESPQMLAAKDSTRKREAFFIDYAEKARAASQAPLIITGGFRSQTAMEDALSSGHLDLVGIARPFALVPDLANKMQNRTYQTVQADRIQTGVAFVDKKAGAMLEMNWYMTQMDLIGQGKQSNPKIVGVESIAENFAGKEGHHHHHH” here?
Answer: not soluble

Question: For “GHRIARKVTDVWEITGPSSEDAIEVARWNPFTKEHEHFMEKSVAIAEIGKLVGLTKDEVLAEIERRKLVLLWMAKSGIRRYREVAPIIFKYYYSPDDVYERAAKELKTELI”, which “soluble on expression in E. coli” value is on record?
Answer: not soluble

Question: With “MAHHHHHHSLTTDLPAAYHIEQRAHAFPWSEKTFASNQGERYLNFQLTQNGKMAAFAITQVVLDEATLFNIAVDPDYQRQGLGRALLEHLIDELEKRGVATLWLEVRASNAAAIALYESLGFNEATIRRNYYPTTDGREDAIIMALPISMEG” as the sequence, how does the “soluble on expression in E. coli” value read?
Answer: not soluble
